Source: patent publication US20260226187A1 (BIOATLA, published 2026)

Assays:
Assay in all cases: cell-based or functional assay
[1] = target: T1, Human EpCAM expressed on cells (CHO-hEpCAM, HCT116) (human, UniProt P16422 24-314)
T1 sequence (looked up): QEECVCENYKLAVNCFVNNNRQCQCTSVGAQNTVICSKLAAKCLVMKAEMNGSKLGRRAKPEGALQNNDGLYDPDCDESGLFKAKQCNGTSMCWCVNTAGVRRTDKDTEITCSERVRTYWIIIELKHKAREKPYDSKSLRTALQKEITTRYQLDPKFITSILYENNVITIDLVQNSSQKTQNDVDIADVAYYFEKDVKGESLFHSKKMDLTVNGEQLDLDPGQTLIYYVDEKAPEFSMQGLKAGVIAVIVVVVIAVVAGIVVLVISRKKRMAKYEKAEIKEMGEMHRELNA

[2] = target: Cynomolgus EpCAM expressed on CHO cells (cynomolgus monkey)
Cynomolgus EpCAM expressed on CHO cells (cynomolgus monkey), sequence (Q1WER1 24-314): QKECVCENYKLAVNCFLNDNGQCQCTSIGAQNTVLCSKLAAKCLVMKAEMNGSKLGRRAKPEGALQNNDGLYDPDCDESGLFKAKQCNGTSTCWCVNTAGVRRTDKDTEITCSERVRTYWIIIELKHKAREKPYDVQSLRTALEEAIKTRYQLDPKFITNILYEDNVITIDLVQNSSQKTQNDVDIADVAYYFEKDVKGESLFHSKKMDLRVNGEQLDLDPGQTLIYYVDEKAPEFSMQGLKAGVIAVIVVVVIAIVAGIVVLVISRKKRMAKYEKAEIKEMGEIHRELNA

[3] = target: T1, Human EpCAM expressed on cells …; remark: listed apart in the source
[4] = target: T1, Human EpCAM expressed on cells …; remark: listed apart in the source
[5] = target: Cynomolgus EpCAM expressed on CHO cells (cynomolgus monkey); remark: listed apart in the source
[6] = target: T1, Human EpCAM expressed on cells …; remark: listed apart in the source

EC50, T cell activation bioassay (NFAT luminescence), CHO hEpCAM cells, pH 6.0, Experiment-1 [1]: 51 pM
EC50, T cell activation bioassay (NFAT luminescence), CHO hEpCAM cells, pH 6.0, Experiment-2 [1]: 49 pM
EC50, T cell activation bioassay (NFAT luminescence), CHO hEpCAM cells, pH 6.0, Experiment-3 [1]: 48 pM
EC50, T cell activation bioassay (NFAT luminescence), CHO hEpCAM cells, pH 7.4, Experiment-1 [1]: 0.358 nM
EC50, T cell activation bioassay (NFAT luminescence), CHO hEpCAM cells, pH 7.4, Experiment-2 [1]: 0.387 nM
EC50, T cell activation bioassay (NFAT luminescence), CHO hEpCAM cells, pH 7.4, Experiment-3 [1]: 0.403 nM
EC50, T cell activation bioassay (NFAT luminescence), CHO cynoEpCAM cells, pH 6.0, Experiment-1 [2]: 0.545 nM
EC50, T cell activation bioassay (NFAT luminescence), CHO cynoEpCAM cells, pH 6.0, Experiment-2 [2]: 0.597 nM
EC50, T cell activation bioassay (NFAT luminescence), CHO cynoEpCAM cells, pH 6.0, Experiment-3 [2]: 0.586 nM
EC50, T cell activation bioassay (NFAT luminescence), CHO cynoEpCAM cells, pH 7.4, Experiment-1 [2]: 9.46 nM
EC50, T cell activation bioassay (NFAT luminescence), CHO cynoEpCAM cells, pH 7.4, Experiment-2 [2]: 8.82 nM
EC50, T cell activation bioassay (NFAT luminescence), CHO cynoEpCAM cells, pH 7.4, Experiment-3 [2]: 10.7 nM
EC50, T cell activation bioassay (NFAT luminescence), HCT116 cells, pH 6.0, Experiment-1 [3]: 0.292 nM
EC50, T cell activation bioassay (NFAT luminescence), HCT116 cells, pH 6.0, Experiment-2 [3]: 0.288 nM
EC50, T cell activation bioassay (NFAT luminescence), HCT116 cells, pH 6.0, Experiment-3 [3]: 0.238 nM
EC50, T cell activation bioassay (NFAT luminescence), HCT116 cells, pH 7.4, Experiment-1 [3]: 1.86 nM
EC50, T cell activation bioassay (NFAT luminescence), HCT116 cells, pH 7.4, Experiment-2 [3]: 2.15 nM
EC50, T cell activation bioassay (NFAT luminescence), HCT116 cells, pH 7.4, Experiment-3 [3]: 1.96 nM
EC50, cytolysis of HCT116 cells by human PBMC, pH 6.5, donor 13143 [4]: 1.66 pM
EC50, cytolysis of HCT116 cells by human PBMC, pH 6.5, donor 13290 [4]: 1.03 pM
EC50, cytolysis of HCT116 cells by human PBMC, pH 6.5, donor 13292 [4]: 2.05 pM
EC50, cytolysis of HCT116 cells by human PBMC, pH 6.5, donor 13371 [4]: 0.79 pM
EC50, cytolysis of HCT116 cells by human PBMC, pH 6.5, donor 13397 [4]: 1.19 pM
EC50, cytolysis of HCT116 cells by human PBMC, pH 6.5, donor 13411 [4]: 1.39 pM
EC50, cytolysis of HCT116 cells by human PBMC, pH 6.5, donor 75377 [4]: 0.6 pM
EC50, cytolysis of HCT116 cells by human PBMC, pH 6.5, donor 77535 [4]: 1.52 pM
EC50, cytolysis of HCT116 cells by human PBMC, pH 6.5, donor 85639 [4]: 0.88 pM
EC50, cytolysis of HCT116 cells by human PBMC, pH 6.5, donor 97529 [4]: 2.95 pM
EC50, cytolysis of HCT116 cells by human PBMC, pH 7.4, donor 13143 [4]: 8.73 pM
EC50, cytolysis of HCT116 cells by human PBMC, pH 7.4, donor 13290 [4]: 4.37 pM
EC50, cytolysis of HCT116 cells by human PBMC, pH 7.4, donor 13292 [4]: 6.35 pM
EC50, cytolysis of HCT116 cells by human PBMC, pH 7.4, donor 13371 [4]: 6.96 pM
EC50, cytolysis of HCT116 cells by human PBMC, pH 7.4, donor 13397 [4]: 5.9 pM
EC50, cytolysis of HCT116 cells by human PBMC, pH 7.4, donor 13411 [4]: 1.36 pM
EC50, cytolysis of CHO cynoEpCAM cells by cyno PBMC, pH 6.5, Experiment-1 [5]: 18.9 pM
EC50, cytolysis of CHO cynoEpCAM cells by cyno PBMC, pH 6.5, Experiment-2 [5]: 15.9 pM
EC50, cytolysis of CHO cynoEpCAM cells by cyno PBMC, pH 6.5, Experiment-3 [5]: 17.4 pM
EC50, cytolysis of CHO cynoEpCAM cells by cyno PBMC, pH 7.4, Experiment-1 [5]: 172 pM
EC50, cytolysis of CHO cynoEpCAM cells by cyno PBMC, pH 7.4, Experiment-2 [5]: 215 pM
EC50, cytolysis of CHO cynoEpCAM cells by cyno PBMC, pH 7.4, Experiment-3 [5]: 167 pM
EC50 IL-2 release, human PBMC co-cultured with HCT116, pH 6.5, donor 3371 [6]: 4.56 nM
EC50 IL-2 release, human PBMC co-cultured with HCT116, pH 6.5, donor 3378 [6]: 7.85 nM
EC50 IL-2 release, human PBMC co-cultured with HCT116, pH 6.5, donor 3397 [6]: 9.82 nM
EC50 IL-2 release, human PBMC co-cultured with HCT116, pH 6.5, donor 3411 [6]: 4.92 nM
EC50 IL-2 release, human PBMC co-cultured with HCT116, pH 6.5, donor 75377 [6]: 23.2 nM
EC50 IL-2 release, human PBMC co-cultured with HCT116, pH 6.5, donor 77535 [6]: 19.7 nM
EC50 IL-2 release, human PBMC co-cultured with HCT116, pH 6.5, donor 85639 [6]: 25.6 nM
EC50 IL-2 release, human PBMC co-cultured with HCT116, pH 6.5, donor 97529 [6]: 15 nM
EC50 INFγ release, human PBMC co-cultured with HCT116, pH 6.5, donor 3371 [6]: 5.28 nM
EC50 INFγ release, human PBMC co-cultured with HCT116, pH 6.5, donor 3378 [6]: 6.45 nM
EC50 INFγ release, human PBMC co-cultured with HCT116, pH 6.5, donor 3397 [6]: 10.1 nM
EC50 INFγ release, human PBMC co-cultured with HCT116, pH 6.5, donor 3411 [6]: 2.54 nM
EC50 INFγ release, human PBMC co-cultured with HCT116, pH 6.5, donor 75377 [6]: 2.53 nM
EC50 INFγ release, human PBMC co-cultured with HCT116, pH 6.5, donor 77535 [6]: 24 nM
EC50 INFγ release, human PBMC co-cultured with HCT116, pH 6.5, donor 97529 [6]: 2.52 nM
B1: BA3182 (bispecific antibody, human IgG1, kappa, N297Q)
light: DIQMTQSPSSLSASVGDRVTITCSASSSISYMHWYQQKPGQAPRLLIYSTSNLASGVPSRFSGSGSGTDFTFTISSLEAEDAATYYCHQWSTYHTFGQGTKVEIKRTVAAPSVFIFPPSDEQLKSGTASVVCLLNNFYPREAKVQWKVDNALQSGNSQESVTEQDSKDSTYSLSSTLTLSKADYEKHKVYACEVTHQGLSSPVTKSFNRGECSRSGGGGEVQLVESGGGLVQPGGSLRLSCAASGFTFNTYAMNWVRQAPGKGLEWVARIRSKYNNYATYYADSVKDRFTISRDDSKNSLYLQMNSLKTEDTAVYYCVRHSNFGNSKVSWFAYWGQGTLVTVSSGGSGGSGGSGGSGGQAVVTQEPSLTVSPGGTVTLTCRSSAGAVTTSNYDNWVQQKPGQAPRGLIGGTNKRAPWTPARFSGSLLGGKAALTITGAQAEDEADYYCALWYSNLWVFGGGTKLTVLSR
heavy: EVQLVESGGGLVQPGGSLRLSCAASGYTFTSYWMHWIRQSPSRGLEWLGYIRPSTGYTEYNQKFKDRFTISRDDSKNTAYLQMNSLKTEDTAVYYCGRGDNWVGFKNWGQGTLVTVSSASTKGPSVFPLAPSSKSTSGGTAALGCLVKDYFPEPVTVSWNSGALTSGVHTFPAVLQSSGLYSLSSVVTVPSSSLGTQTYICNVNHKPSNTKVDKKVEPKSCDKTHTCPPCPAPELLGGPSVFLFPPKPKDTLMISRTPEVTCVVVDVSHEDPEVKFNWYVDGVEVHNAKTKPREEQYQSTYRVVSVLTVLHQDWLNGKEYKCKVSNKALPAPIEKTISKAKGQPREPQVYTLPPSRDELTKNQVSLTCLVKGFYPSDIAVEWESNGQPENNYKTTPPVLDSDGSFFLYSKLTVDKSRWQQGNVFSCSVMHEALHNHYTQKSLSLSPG
notes: Human IgG1,k aglycosylated mutant (N297Q) with an anti-CD3 scFv on the C-terminus of each light chain; 200 kDa used for molar concentrations; also called BAP150.31-BF45; BA150.31-BF45
